Source: IntAct's records for PubMed 24282027

Key:
dyn1_human DNM1 = dyn1_human DNM1 (UniProt Q05193)
mfn1_mouse Mfn1 = mfn1_mouse Mfn1 (UniProt Q811U4)
UniProt Q811U4, sequence (Q811U4 whole entry): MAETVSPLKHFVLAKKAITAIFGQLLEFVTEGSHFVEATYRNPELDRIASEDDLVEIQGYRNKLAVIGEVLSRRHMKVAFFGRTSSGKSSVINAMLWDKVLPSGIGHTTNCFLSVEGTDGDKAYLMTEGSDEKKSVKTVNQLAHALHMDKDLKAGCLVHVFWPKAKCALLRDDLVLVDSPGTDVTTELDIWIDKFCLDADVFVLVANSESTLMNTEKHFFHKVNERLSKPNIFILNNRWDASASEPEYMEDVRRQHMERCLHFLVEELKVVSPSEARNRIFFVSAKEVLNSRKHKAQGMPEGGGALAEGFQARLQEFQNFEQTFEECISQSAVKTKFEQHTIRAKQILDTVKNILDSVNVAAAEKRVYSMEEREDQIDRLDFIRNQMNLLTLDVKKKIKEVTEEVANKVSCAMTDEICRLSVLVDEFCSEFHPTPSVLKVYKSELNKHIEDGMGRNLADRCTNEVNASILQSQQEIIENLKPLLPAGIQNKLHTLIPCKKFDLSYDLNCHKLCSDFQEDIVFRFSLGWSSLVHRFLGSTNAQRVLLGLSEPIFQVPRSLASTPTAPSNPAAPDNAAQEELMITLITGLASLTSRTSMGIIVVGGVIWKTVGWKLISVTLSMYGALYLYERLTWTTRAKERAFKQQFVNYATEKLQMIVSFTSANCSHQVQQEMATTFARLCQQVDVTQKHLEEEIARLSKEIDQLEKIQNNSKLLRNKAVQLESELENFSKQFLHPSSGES

UniProt Q05193, sequence (Q05193 whole entry): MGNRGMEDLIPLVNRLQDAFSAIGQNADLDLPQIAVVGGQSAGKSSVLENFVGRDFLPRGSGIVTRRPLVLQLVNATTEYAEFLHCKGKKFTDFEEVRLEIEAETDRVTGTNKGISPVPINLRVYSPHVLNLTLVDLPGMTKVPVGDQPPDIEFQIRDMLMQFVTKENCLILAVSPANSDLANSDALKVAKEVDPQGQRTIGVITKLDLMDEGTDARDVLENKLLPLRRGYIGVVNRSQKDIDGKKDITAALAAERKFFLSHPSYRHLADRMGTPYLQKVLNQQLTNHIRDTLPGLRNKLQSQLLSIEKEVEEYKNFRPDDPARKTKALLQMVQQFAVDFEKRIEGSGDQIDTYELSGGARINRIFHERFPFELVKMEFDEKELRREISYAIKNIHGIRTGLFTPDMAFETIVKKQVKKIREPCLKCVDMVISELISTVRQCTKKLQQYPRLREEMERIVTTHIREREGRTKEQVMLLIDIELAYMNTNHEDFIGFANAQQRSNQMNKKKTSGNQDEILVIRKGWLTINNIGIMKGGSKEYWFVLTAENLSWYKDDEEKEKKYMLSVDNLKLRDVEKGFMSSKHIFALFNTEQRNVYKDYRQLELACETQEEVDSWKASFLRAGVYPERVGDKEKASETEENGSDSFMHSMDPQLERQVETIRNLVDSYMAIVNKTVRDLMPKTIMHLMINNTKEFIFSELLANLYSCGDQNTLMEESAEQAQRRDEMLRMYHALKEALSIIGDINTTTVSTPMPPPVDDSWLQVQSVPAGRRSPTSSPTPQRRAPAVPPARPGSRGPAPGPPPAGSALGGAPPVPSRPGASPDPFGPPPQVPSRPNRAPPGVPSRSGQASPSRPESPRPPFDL

effect of a mutation on the interaction (dyn1_human DNM1): increasing interaction
effect of a mutation on the interaction (mfn1_mouse Mfn1): increasing interaction
Substance: Leucine-rich repeat serine/threonine-protein kinase 2 (Homo sapiens), Q5S007 G2019S
